Entries after “also recorded” stand apart in the source; their conditions may differ. Blank lines part the entries; values can stand above or below the molecule they belong to.
How the values were obtained:
TAB-K94 antibody = test: ELISA with selected phage as coating antigen and TAB-K94 antibody as primary antibody; type: binding, mouse; settings: 100 ng/100 μl TAB-K94 antibody, absorbance at 450 nm
Procedure: In order to examine the reactivity of the selected TAB-K94 antibody-specific phages against TAB-K94 antibody, ELISA was performed using the phage as a coating antigen and TAB-K94 antibody as a primary antibody. The detailed method is as follows:
[…] was diluted in 100 μl of a coating solution (0.1 M sodium bicarbonate buffer, pH 8.6) and added to each well of 96-well Maxisorp ELISA plate. For antigen coating, the phage-added plate was stored at 4° C. for 16 hours or longer. After phage coating, 300 μl of skim milk solution (5% (w/v) skim milk/TBST) was added, and reacted at room temperature for 1 hour to block the remaining sites after antigen coating. After blocking, the plate was washed with TBST (TBS containing 0.1% Tween-20) twice, and 100 ng/100 μl of TAB-K94 antibody was added thereto, and reacted at room temperature for 90 minutes. […] The secondary antibody was also reacted at room temperature for 90 minutes, and the plate was washed with TBST six times. Color development was performed using a TMB solution (Pierce) as a substrate for HRP. Absorbance was measured at 450 nm to quantify the antigen-antibody reaction.

CK8/18 complex = target: T1, CK8/18 complex (Homo sapiens, UniProt P05783+P05787); test: ELISA with recombinant protein as coating antigen; type: binding; settings: mixture of the two proteins as coating antigen
T1 construct: made in house; host or cells: E. coli BL21 (DE3)
T1 sequence (P05787 1-483): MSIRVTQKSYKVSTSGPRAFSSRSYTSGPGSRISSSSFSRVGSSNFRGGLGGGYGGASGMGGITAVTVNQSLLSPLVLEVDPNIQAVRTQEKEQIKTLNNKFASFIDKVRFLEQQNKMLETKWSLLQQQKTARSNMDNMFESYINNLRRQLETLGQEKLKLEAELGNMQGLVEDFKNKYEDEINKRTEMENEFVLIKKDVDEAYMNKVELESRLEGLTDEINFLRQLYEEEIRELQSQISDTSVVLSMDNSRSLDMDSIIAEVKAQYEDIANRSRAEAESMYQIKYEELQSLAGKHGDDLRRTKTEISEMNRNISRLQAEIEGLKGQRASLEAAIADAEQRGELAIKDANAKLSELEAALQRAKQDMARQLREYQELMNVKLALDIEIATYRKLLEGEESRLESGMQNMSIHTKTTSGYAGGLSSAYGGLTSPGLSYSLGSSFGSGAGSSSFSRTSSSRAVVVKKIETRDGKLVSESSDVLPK
T1 sequence (P05783 1-430): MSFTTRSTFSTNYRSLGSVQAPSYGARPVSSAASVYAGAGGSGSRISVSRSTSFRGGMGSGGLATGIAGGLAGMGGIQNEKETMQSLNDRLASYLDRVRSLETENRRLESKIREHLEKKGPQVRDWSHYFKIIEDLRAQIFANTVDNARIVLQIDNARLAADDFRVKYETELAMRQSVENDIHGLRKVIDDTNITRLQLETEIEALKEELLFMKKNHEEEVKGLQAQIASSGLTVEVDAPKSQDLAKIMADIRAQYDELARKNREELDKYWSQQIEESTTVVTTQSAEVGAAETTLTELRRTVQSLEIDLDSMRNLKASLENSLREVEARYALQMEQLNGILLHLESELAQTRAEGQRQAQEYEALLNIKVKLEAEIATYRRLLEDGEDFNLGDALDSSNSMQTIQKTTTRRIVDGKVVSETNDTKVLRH

[1] = test system: MCF-7 or HT29 cells having the suppressed CK8 or CK18 expression; test: Flow cytometry of cells with siRNA-suppressed CK8 or CK18 expression; type: cell-based; settings: 72 hours after siRNA treatment
Procedure: As siRNAs for the suppression of CK8 and CK18 expression, siRNAs (CK8 Sense: 5′-CCG CAG UUA CGG UCA ACC A(dTdT)-3′ (SEQ ID NO. 23), Antisense: 5′-UGG UUG ACC GUA ACU GCG G(dTdT)-3′ (SEQ ID NO. 24), CK18 Sense: 5′-CUC ACA GAG CUG AGA CGU A(dTdT)-3′ (SEQ ID NO. 25), Antisense: 5′-UAC GUC UCA GCU CUG UGA C(dTdT)-3′ (SEQ ID NO. 26)) provided by Bioneer were used, and injected into MCF-7 or HT29 cells using Lipofectamine 2000 (Invitrogen). 72 hours after siRNA treatment, the cells were collected to extract total RNA, and 5 μg of RNA was used as a template to synthesize cDNA. The synthesized cDNA was used as a template to perform polymerase chain reaction using primers having specificity to CK8 and CK18. The resulting product was analyzed on a 1% agarose gel.
The cells showing the suppressed CK8 and CK18 expression by siRNA in RT-PCR were subjected to flow cytometry in the same manner as in Examples 1 and 3, in order to examine their TAB-K94 antibody reaction. […] However, the previous studies reported that […] form a complex to exert intracellular function. Therefore, it can be assumed that variation in the expression of one of the two proteins affects that of the other protein, and this assumption was examined by Western blotting. After treatment of siRNA for CK8 or CK18, Western blotting was performed using specific antibody to each.

[2] = test system: HepG2, MCF-7 and HT29 cells; test: Intracellular localization by fluorescence staining and confocal laser microscopy; type: cell-based; settings: primary antibody 5 μg/ml
Procedure: In order to examine intracellular localization of the TAB-K94 antigen expression, the corresponding cells were cultured on a coverslip, and then intracellular staining was performed, followed by observation using confocal laser microscopy (Zeiss). […] The stained coverslip was treated with a mounting solution containing DAPI, and placed on a slide. […] It was confirmed that the TAB-K94 antibody-specific antigen is a CK8/18 complex, and thus the cells were stained with CK8 and CK18-specific antibodies to compare with the localization of TAB-K94 antibody reaction.

CK8 [3] = target: T2, CK8 (Homo sapiens, UniProt P05787); test: ELISA with recombinant protein as coating antigen; type: binding
T2 construct: made in house; host or cells: E. coli BL21 (DE3)
T2 sequence (P05787 1-483): T1 sequence (P05787 1-483)

HT22 neuronal cells = test: Flow cytometry after intracellular staining of cell lines with TAB-K94 antibody; type: cell-based; settings: normal cell line
Procedure: (§1) The reactivity of autoantibodies against cancer cells was examined by flow cytometric analysis of cancer cell line after intracellular staining following the fixation and permeabilization. The method is described in detail as follows. A liver cancer cell line, HepG2 or Hepa1c1c7 at 70-80% confluency was treated with trypsin, detached from the cell culture plate, and washed with PBS. 100 μl of Cytofix/Cytoperm solution (BD) per 2×10^5 cells was added thereto, and the cells were incubated at 4° C. for 20 minutes for fixation and permeabilization. After incubation, 1 ml of Cytowash/Cytoperm solution (BD) was added and mixed well. Then the mixture was centrifuged at 1700 rpm for 5 minutes and the cell pellet was washed. 50 μl of a primary antibody solution (B cell hybridoma cell culture medium or purified primary antibody solution) was added to the washed sample, and the incubation was performed at 4° C. for 40 minutes. After incubation, the cells were washed three times, and treated with anti-mouse Igs-RPE (DaKo) at 4° C. for 40 minutes. Then, the cells were washed an additional three times, and the cell pellet was resuspended in 300 μl of PBS, followed by analysis using a FACSCaliber (BD). Mean values of fluorescence corresponding to antibody reactions were obtained and compared. 50 μl of mouse antibody free DMEM medium was added to the control group showing no antibody reaction.
(§2) The reactivity of TAB-K94 autoantibodies against various cancer cell lines was examined by flow cytometric analysis after intracellular staining of various cancer cell lines in the same manner as in Example 1 (FIG. 3A).

[4] = test system: breast cancer cell line MCF-7; test: as above; type: cell-based
Procedure: as §1, §2

[5] = test system: liver cancer cell line HepG2; test: as above; type: cell-based
Procedure: as §1, §2

Chang liver cells = test: as above; type: cell-based; settings: normal cell line
Procedure: as §1, §2

CK18 [6] = target: T3, CK18 (Homo sapiens, UniProt P05783); test: Western blotting of recombinant proteins with TAB-K94 antibody; type: binding; settings: CK18 run alone
T3 construct: made in house; host or cells: E. coli BL21 (DE3)
T3 sequence (P05783 1-430): T1 sequence (P05783 1-430)
From the text: (§3) ID NO. 33), CK18 [NT] ID NO. 34), [NT] ID NO.

[7] = target: T4, CK8/18 mixture (CK8/18 complex) (Homo sapiens, UniProt P05783+P05787); test: as above; type: binding; settings: mixture of CK8 and CK18
T4 construct: made in house; host or cells: E. coli BL21 (DE3)
T4 sequence (P05787 1-483): T1 sequence (P05787 1-483)
T4 sequence (P05783 1-430): T1 sequence (P05783 1-430)
From the text: as §3

CK8 [8] = target: T2, CK8; test: as above; type: binding; settings: CK8 run alone
From the text: as §3

[9] = test system: human liver cancer tissues; test: Immunohistostaining of human cancer tissues using TAB-K94 antibody; settings: liver cancer tissues (data not shown)
From the text: (§4) Based on the reactivity against cancer cells, expression of TAB-K94 antibody-reactive antigen was examined by immunohistostaining of human liver cancer tissues and breast cancer tissues using TAB-K94 antibodies.

[10] = test system: human breast cancer tissues; test: as above; settings: in particular invasive front
From the text: as §4

CK18 [11] = target: T3, CK18; test: ELISA with recombinant protein as coating antigen; type: binding
[12] = test system: breast cancer cell line MCF-7; test: Western blotting of cell lysate and serum-free cell culture medium with TAB-K94 antibody; type: binding; settings: MCF-7 cell lysate and cell culture medium, 50 μg protein
Procedure: Expression of TAB-K94 antibody-specific antigen proteins was examined in various cancer cell lines by Western blotting (FIG. 5A). The detailed method is as follows. The cells to be analyzed were collected and dissolved in PBS containing RIPA buffer (0.1% (w/v) SDS, 0.1% (w/v) sodium deoxycholate, 1.0% (v/v) NP40, protease inhibitor cocktail (Roche)) to be used as protein analysis samples. Protein quantification was performed by Bradford assay. Each 50 μg of the prepared protein samples was run on 10% reduced SDS-PAGE, and transferred onto a PVDF membrane. […] As a result, the TAB-K94 antibody-specific antigens were found in the liver cancer cell lines including Hep3B, PLC/PRF/5, and SK-Hep1 as a band having a molecular weight of 45 kDa.
For induction of antibodies in the individual, a specific protein should be released into the blood. That is, extracellular release of proteins expressed within the cells supports the induction of autoantibodies. Therefore, the presence of antigens was examined in the cell culture medium of cell lines expressing TAB-K94 antibody-specific antigens by Western blotting. Each 10 ml of serum-free cell culture medium was collected, and concentrated, and each 50 μg of the quantified protein was run on 10% reduced SDS-PAGE. Western blotting was performed in the same manner as above.

Molecule: ISPDAHS (Ile-Ser-Pro-Asp-Ala-His-Ser) [K94p1]
reactivity against TAB-K94 antibody in ELISA (TAB-K94 antibody): high reactivity

Molecule: TLSHTRT (Thr-Leu-Ser-His-Thr-Arg-Thr) [K94p7]
reactivity against TAB-K94 antibody in ELISA (TAB-K94 antibody): no reactivity

reactivity in ELISA (CK8/18 complex): the reactivity was observed
reactivity in ELISA (CK8 [3]): not observed
reactivity in Western blotting (CK18 [6]): no reactivity
reactivity in Western blotting [7]: showed reactivity
reactivity in Western blotting (CK8 [8]): no reactivity
reactivity in ELISA (CK18 [11]): not observed
B1: TAB-K94 antibody: Monoclonal autoantibody against cytokeratin 8/18 complex from hybridoma KCTC 11799BP; heavy chain SEQ ID NO. 1, light chain SEQ ID NO. 2 (antibody, V domains shown)
VH: XVXLXQSGPGILQPSQTLSLTCSFSGFSLSTFGMGVGWIRQPSGKGLEWLAHIWWDDDKYYNPALKSRLTISKDTSKNQVFLKIANVDTADTATYYCARIGGYYGSSSWYFDVWGTGTTVTVSSESQSFPNVRSS
VL: DIVITQTPSSLSASLGGKVTITCKASQDINKYIAWYQHKPGKGPRLLIHYTSTLQPGIPSRFSGSGSGRDYSFSISNLEPEDIATYYCLQYDNLLTFGGGTKLEIKRADAAPTVS
modifications: not fully specified; a heavy chain variable region; a light chain variable region
TAB-K94 antibody reaction after siRNA suppression of CK8 or CK18 [1]: reduced
intracellular localization of staining [2]: strongly localized in the cell membrane
reactivity measured by flow cytometry after intracellular staining (HT22 neuronal cells): lower reactivity
reactivity measured by flow cytometry after intracellular staining [4]: High reactivity; also recorded: noticeably increased
reactivity measured by flow cytometry after intracellular staining [5]: High reactivity; also recorded: noticeably increased
reactivity measured by flow cytometry after intracellular staining (Chang liver cells): lower reactivity
staining of tissue by immunohistochemistry [9]: hardly any distinct reaction; also recorded: no distinct reaction
staining of tissue by immunohistochemistry [10]: strong complete staining; also recorded: strong staining around cell membrane
reactivity in Western blotting [12]: very high reactivity
